These results are taken from patent publication US6767720 (VLAAMS INTERUNIVERSITAIR INSTITUUT VOOR BIOTECHNOLOGIE VZW, dated 2004).

The test deals with T1, ANC-2H01 initial two-hybrid clone (part of ANC-2H01 fused to the GAL4-AD, plasmid pGAD10ANC2H01) (human, UniProt Q9UID6 27-485).
T1 construct: 27-485 is derived from 459 of 485 residues; also called ANC-2H01 clone; initial ANC-2H01 two-hybrid clone
T1 sequence: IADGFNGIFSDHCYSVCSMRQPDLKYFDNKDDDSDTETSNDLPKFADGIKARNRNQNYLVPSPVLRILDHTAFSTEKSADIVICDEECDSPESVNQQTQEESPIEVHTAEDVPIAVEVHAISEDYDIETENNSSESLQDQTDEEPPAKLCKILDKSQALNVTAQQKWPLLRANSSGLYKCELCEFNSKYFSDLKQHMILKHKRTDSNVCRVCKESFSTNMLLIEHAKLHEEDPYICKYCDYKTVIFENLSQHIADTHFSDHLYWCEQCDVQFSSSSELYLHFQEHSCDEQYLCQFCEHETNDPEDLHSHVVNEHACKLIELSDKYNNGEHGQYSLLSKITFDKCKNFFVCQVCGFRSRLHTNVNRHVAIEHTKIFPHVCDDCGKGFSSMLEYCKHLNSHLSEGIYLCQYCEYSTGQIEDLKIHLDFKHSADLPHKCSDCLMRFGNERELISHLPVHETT
Nature of the test: yeast two-hybrid, strain HF7c, HIS3 and LacZ reporters.

Method: The HF7c yeast strain carries two reporter genes, HIS3 and LacZ, both integrated into the yeast genome and under the control of GAL4 responsive elements, respectively, the GAL1 UAS and the UAS_G-17mer. It has also two auxotrophic markers, trp1 and leu2, which are used for plasmid selection upon transformation. Yeast cultures were grown at 30° C. in either complete YPD medium (1% yeast extract, 2% peptone and 2% glucose) or in SD minimal medium (0.5% yeast nitrogen base without amino acids, 2% glucose, and 1% of the appropriate amino acid drop out solution).
The isolated two-hybrid clone was retransformed into the HF7c strain.

B1: lamin C fused to the GAL4 DNA binding domain (plasmid pLAM5′) (other, UniProt P04386 1-147, looked up)
chain: MKLLSSIEQACDICRLKKLKCSKEKPKCAKCLKNNWECRYSPKTKRSPLTRAHLTEVESRLERLEQLFLLIFPREDLDMILKMDSLQDIKALLTGLFVQDNVNKDAVTDRLASVETDMPLTLRQHRISATSSSEESSNKGQRQLTVSSEEVVSREVSGIKAAYEAELGDARKTLDSVAKERARLQLELSKVREEFKELKARNTKKEGDLIAAQARLKDLEALLNSKEAALSTALSEKRTLEGELHDLRGQVAKLEAALGEAKKQLQDEMLRRVDAENRLQTMKEELDFQKNIYSEELRETKRRHETRLVEID
notes: Irrelevant control protein
Turning to B1, the binding result is on record as “no binding”.
